This is an account of results in publication PMC3793302 (Developmental cell, 2004).

This data set concerns the molecule itself. The experiment in a line: cross-linking.

B1: C-TSK-Myc-His expressed in Xenopus embryos (natural protein, chick, UniProt Q65Z91 20-369, looked up)
chain: KTCFPGCHCEVESFGLFDSFSLTKVDCSGIGSHIVPVPIPLDTSYLDLSSNKLETINESMLTGPGYTTLVSLDLSYNNIAKISSTTFSRLRYLESLDLSHNSLEVLPEDCFSSSPLGDIDLSNNKLLDIALDVFASKGQGKPLNVDLSNNMLSKITRNHEKSIPNIQNLNLSGNRLTSVPNLQGIPLRYLNLDGNPLAKIEKGDFKGLKGLIHLSLSGLHDFRELSPYSFKELPALQVLDLSNNPNLRSLTAEVIFGLNSIQELNLSGTGVSSLPKTVLKYLPSLKSITLRKNIQCFKTIKEGQYHRQIGLTKLGLGAEELLWCKTPCPRPVCRCRDKPLQSAPQNLPTP
B1: the “stoichiometry N” value came out at 2.
